The results in this text go back to US9097721B2, “Compositions comprising engineered phosphothreonine affinity reagents, methods of making, and methods of use” (The Board of Trustees of the University of Illinois, priority 2012, dated 2015).

This assay concerns the target T1, Rad9-pT peptide (Saccharomyces cerevisiae, UniProt P14737).
T1 construct: host or cells: chemical synthesis
Put plainly: Phage ELISA of phage-displayed FHA1 domains. It is filed as binding, yeast. The conditions noted are these: for binding to Rad9-pT peptide when phage-displayed: M13 protein III fusion, DsbA signal sequence; for binding to Rad9-pT peptide when phage-displayed with chaperones: co-expression of dsbA, dsbC, fkpA, skp and surA. On the procedure: To amplify the phage particles displaying the recombinant FHA1 variants, TG1 bacterial cells (5 mL; Stratagene) harboring the phagemid DNA were infected at mid-log (OD600nm=0.5-0.6) with M13K07 helper phage (New England Biolabs) at a multiplicity of infection (MOI) of 20 for 1 h at 37° C. at 150 rpm. Infected cells were centrifuged, and the pellet was resuspended in fresh Luria Bertani medium (LB: 10 g Tryptone, 5 g Yeast extract, and 10 g NaCl per liter) supplemented with 50 μg/mL carbenicillin and 50 μg/ml kanamycin, and phage were amplified overnight at 30° C. at 250 rpm. All of the phage ELISA steps were performed at room temperature. Biotinylated peptides (100 μL, 5 μg/mL) were immobilized on Nunc MaxiSorp flat-bottom 96 well plates (Thermo Fisher Scientific) via NeutrAvidin™ Biotin binding protein (100 μL, 10 μg/mL; Thermo Fisher Scientific) and blocked with 2% skim milk in 1×PBS (200 μL per well). After washing with Phosphate Buffered Saline (PBS: 0.14 M Sodium Chloride, 0.003 M Potassium Chloride, 0.002 M Potassium Phosphate, and 0.01 M Sodium Phosphate), the wells were incubated with the phage supernatant (100 μL of phage diluted 1:2 with PBS containing 0.1% Tween 20 (PBST)) for 1 h and washed three times with PBST. The binding phage were detected using anti-M13 antibody conjugated to horse radish peroxidase (HRP) (GE Healthcare) diluted 1:5000 with PBST. After washing away the unbound antibody, the chromogenic substrate for HRP; 2,2′-Azinobis (3-ethylbenzothiazoline-6-Sulfonic Acid) diammonium salt (Thermo Fisher Scientific), supplemented with hydrogen peroxide was added (100 μL per well), and the absorbance of the green colored complex was measured at 405 nm on POLARstar OPTIMA microtiter plate reader (BMG Labtech).
A general note: An ELISA detects its analyte on a solid surface through an enzyme-linked reagent.

B1: WT: N-terminal FHA1 domain of S. cerevisiae Rad53 protein kinase, residues 1-170 (SEQ ID NO:7) (protein, listed as Saccharomyces cerevisiae)
chain: MENITQPTQQSTQATQRFLIEKFSQEQIGENIVCRVICTTGQIPIRDLSADISQVLKEKRSIKKVWTFGRNPACDYHLGNISRLSNKHFQILLGEDGNLLLNDISTNGTWLNGQKVEKNSNQLLSQGDEITVGVGVESDILSLVIFINDKFKQCLEQNKVDRIRSNLKNT
Regarding B1, the “binding to Rad9-pT peptide when phage-displayed” value is on record as “non-functional”, the “binding to Rad9-pT peptide when phage-displayed via TorA signal sequence” value was “only detected when the phage particles were concentrated 50 times” and the “binding to Rad9-pT peptide when phage-displayed with chaperones” value is “remained nonfunctional”. Besides, under “listed as WT FHA1 domain”, the “binding to Rad9-pT peptide when phage-displayed” value is recorded as “did not bind”, the “binding to Rad9-pT peptide when phage-displayed via TorA signal sequence” value was “only partially restored” and the “binding to Rad9-pT peptide when phage-displayed with chaperones” value was “did not restore the activity”. Also, the “binding to Rad9-pT peptide when phage-displayed” value (listed as wild-type (WT) FHA1 domain) is recorded as “no binding was detected”.
